# Data as given in US20250298034A1, “METHODS OF TREATING IMMUNOTHERAPY-ASSOCIATED ADVERSE EFFECTS” (NORTHWESTERN UNIVERSITY, priority 2022, published 2025).
# System: human peripheral monocyte differentiated M1 macrophages
# Test: In vitro sMIC induction of PDL1 expression on monocyte-derived macrophages (flow cytometry)
# Assay type: cell-based
# Conditions: recombinant sMIC added at day 7, cultured 2 days; FIG. 4E
# Method: In vitro macrophage generation from peripheral monocytes: Human peripheral blood monocyte differentiation into macrophages. PBMCs from healthy donors were seeded at the density of 2×10^6 cells/well in a 24 well plate with pre-warmed monocyte attachment media (MAM, Promocell, Cat. No. c-28051) and incubate at 37° C. After 1.5 hr incubation, non-adherent cells were removed. Adherent cells were washed three times with pre-warmed MAM before cultured in macrophage differentiation media respectively, the M1 macrophage generating media (Promocell c-28055) or the M2 macrophage generating media (Promocell c-28056). After 5 days of culture, 50% of the media were replaced with fresh media. At day 7, recombinant sMIC (rsMICB, his-tagged, SinoBiologicals Cat. No 10759-H08H) or control vehicle PBS were added to the culture at indicated concentration. The culture was continued for 2 days before being harvested for analyses.
molecule,measurement,value
"sMIC: recombinant sMIC (rsMICB, his-tagged, SinoBiologicals Cat. No 10759-H08H) (protein, UniProt Q29980 23-383, looked up, His-tag) MHC class I …: AEPHSLRYNLMVLSQDGSVQSGFLAEGHLDGQPFLRYDRQKRRAKPQGQWAENVLGAKTWDTETEDLTENGQDLRRTLTHIKDQKGGLHSLQEIRVCEIHEDSSTRGSRHFYYDGELFLSQNLETQESTVPQSSRAQTLAMNVTNFWKEDAMKTKTHYRAMQADCLQKLQRYLKSGVAIRRTVPPMVNVTCSEVSEGNITVTCRASSFYPRNITLTWRQDGVSLSHNTQQWGDVLPDGNGTYQTWVATRIRQGEEQRFTCYMEHSGNHGTHPVPSGKALVLQSQRTDFPYVSAAMPCFVIIIILCVPCCKKKTSAAEGPELVSLQVLDQHPVGTGDHRDAAQLGFQPLMSATGSTGSTEGT",PDL1 expression on M1 macrophages,can induce PDL1 expression
